Measurements reported in PMC3648529 (PLoS ONE, 2013).

Molecular target: T1, biotinylated human soluble TWEAK (human, UniProt O43508, biotin (site not stated))
T1 construct: TWEAK, human, soluble form; Captured on a streptavidin (SA) sensor by its biotin; also called biotinylated TWEAK ligand
Assay: SPR; Biacore 2000, SA sensor, biotinylated human soluble TWEAK coupled at 150 RU; antibody injected at 100 nM, 2 min association, 5 min dissociation at 25 C in HBS-ET (10 mM HEPES pH 7.4, 150 mM NaCl, 1 mM EDTA, 0.05% Tween 20); half-life from kd of the interval 240-300 s
Conditions: both partners purified

T1 sequence (O43508 94-249): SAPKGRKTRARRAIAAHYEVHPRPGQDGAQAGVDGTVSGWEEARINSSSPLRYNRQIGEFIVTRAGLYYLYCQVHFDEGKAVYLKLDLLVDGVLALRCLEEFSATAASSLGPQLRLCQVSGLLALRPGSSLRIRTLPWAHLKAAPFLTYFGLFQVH

t/2 diss (half-life of immunocomplex): 2.45 h
B1: chi TW-305 (chimeric rabbit anti-TWEAK monoclonal antibody) (antibody, V domains shown)
VH: QEQLVESGGGLVQPGGSLTLSCKASGFDFSTYYMSWVRQAPGKGLEWIGTVYVRQGTTYYASWLNGRFTISSDNAQNTVDLKMNSLTAADTATYFCAKGGYNYDDAFVIWGPGTLVTVSF
VL: AIEMTQTPFSVSAAVGGTVTINCQASQNIYSNLAWYQQKPGQPPKLLMYTASYLASGVPSRFKGSGSRTEYTLTISGVQCADAATYYCQTAYYNSRPDTVAFGGGTEVVVK
notes: Fab part as the heavy chain of m5 (PDB 4HT1); as the light chain of m5 (PDB 4HT1); Whole antibody from which the Fab m5 was cut; source: produced by standard procedures
